IntAct's records for PubMed 19513100

Assays:
[1] = molecular target: fog1_human ZFPM1 (UniProt Q8IX07)
[2] = molecular target: rb_mouse Rb1 (UniProt P13405)
Chain of rb_mouse Rb1 (P13405 whole entry): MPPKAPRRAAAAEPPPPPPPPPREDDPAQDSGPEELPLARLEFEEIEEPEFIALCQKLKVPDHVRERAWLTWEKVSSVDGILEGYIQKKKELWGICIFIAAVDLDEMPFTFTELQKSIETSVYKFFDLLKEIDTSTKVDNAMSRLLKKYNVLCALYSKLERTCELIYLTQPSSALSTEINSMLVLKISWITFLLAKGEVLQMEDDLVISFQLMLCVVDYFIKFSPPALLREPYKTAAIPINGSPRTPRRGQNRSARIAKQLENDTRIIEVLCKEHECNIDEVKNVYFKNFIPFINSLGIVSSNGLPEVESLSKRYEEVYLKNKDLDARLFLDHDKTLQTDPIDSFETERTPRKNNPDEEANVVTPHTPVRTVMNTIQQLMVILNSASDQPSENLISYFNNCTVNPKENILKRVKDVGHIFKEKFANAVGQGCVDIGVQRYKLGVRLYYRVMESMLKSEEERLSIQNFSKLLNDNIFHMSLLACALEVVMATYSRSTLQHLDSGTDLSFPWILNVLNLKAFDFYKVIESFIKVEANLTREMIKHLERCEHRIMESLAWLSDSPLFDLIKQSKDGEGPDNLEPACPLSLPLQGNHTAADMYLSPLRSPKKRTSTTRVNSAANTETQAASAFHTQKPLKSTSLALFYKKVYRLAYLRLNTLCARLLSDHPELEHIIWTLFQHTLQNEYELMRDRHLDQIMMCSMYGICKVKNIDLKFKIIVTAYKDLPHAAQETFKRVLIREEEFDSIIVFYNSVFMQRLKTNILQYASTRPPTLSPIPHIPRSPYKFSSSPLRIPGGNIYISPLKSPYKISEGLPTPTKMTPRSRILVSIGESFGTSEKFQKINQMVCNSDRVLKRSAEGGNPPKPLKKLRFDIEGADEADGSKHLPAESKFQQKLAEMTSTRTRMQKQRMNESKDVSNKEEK

Chain of Erythroid transcription factor (Homo sapiens), P15976 C83G;E85K (P15976 whole entry C83G/E85K): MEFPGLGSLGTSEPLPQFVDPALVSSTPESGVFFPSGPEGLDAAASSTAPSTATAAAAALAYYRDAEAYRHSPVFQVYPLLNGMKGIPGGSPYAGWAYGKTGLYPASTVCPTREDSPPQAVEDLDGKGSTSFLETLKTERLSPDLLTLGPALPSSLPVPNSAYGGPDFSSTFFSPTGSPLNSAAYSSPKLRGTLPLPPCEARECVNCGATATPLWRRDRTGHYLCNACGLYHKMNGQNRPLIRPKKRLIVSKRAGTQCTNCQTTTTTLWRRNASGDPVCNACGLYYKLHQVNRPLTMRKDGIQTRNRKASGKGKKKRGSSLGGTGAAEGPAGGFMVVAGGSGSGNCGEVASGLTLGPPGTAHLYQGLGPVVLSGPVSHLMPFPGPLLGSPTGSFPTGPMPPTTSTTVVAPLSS
Chain of fog1_human ZFPM1 (Q8IX07 whole entry): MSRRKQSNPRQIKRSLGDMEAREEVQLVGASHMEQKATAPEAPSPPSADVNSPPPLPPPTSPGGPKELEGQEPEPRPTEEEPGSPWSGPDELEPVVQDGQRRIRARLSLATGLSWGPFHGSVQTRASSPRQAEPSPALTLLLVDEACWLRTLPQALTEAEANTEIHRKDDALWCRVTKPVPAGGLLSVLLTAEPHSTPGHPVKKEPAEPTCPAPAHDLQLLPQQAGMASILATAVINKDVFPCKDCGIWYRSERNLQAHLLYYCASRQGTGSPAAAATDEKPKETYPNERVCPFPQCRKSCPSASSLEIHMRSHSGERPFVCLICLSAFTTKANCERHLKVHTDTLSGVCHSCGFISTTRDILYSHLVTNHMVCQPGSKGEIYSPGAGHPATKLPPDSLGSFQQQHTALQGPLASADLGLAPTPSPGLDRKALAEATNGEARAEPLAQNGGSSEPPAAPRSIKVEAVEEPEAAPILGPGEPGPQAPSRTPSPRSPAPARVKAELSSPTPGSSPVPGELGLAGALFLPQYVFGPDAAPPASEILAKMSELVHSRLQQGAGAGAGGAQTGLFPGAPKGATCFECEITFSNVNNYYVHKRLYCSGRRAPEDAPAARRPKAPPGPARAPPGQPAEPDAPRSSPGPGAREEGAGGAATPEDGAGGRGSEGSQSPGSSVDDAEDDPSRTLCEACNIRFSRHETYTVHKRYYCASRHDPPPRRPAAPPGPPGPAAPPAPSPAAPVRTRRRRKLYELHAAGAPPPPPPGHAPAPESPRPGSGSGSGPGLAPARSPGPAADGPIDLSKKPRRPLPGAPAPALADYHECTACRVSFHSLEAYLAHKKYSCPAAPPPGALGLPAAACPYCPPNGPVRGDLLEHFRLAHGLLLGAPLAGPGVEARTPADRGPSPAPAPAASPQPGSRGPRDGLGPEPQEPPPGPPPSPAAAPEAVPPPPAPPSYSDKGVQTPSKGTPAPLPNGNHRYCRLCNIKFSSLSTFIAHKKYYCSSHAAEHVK
Chain of Erythroid transcription factor (Homo sapiens), P15976 V205G (P15976 whole entry V205G): as the sequence (P15976 whole entry C83G/E85K) above, with G83C, K85E, V205G counted along it

Substance | effect of a mutation on the interaction [1] | effect of a mutation on the interaction [2]
Erythroid transcription factor (Homo sapiens), P15976 V205G | disrupting interaction | –
Erythroid transcription factor (Homo sapiens), P15976 C83G;E85K | – | disrupting interaction
